# Data from patent publication US8124742.
# Numbering of substitutions follows the chain as printed.
# T1: human Rh(D) antigen on Rh(D)-positive red blood cells (human, UniProt Q02161 2-417)
# T1 construct: whole, on cells; also called wt; wild type Rh(D)
# T1 sequence (looked up): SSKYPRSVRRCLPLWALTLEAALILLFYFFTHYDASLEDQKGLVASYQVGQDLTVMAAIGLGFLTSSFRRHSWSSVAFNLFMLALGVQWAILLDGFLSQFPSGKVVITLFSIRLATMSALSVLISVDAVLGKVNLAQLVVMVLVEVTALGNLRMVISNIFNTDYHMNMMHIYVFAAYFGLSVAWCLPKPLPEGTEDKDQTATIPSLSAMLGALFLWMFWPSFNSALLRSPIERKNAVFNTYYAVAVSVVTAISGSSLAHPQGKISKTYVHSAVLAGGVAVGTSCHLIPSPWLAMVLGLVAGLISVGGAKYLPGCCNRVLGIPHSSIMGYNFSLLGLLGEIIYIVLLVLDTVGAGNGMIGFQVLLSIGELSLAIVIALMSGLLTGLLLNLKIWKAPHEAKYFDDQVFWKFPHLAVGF
# B1: SH14 (Fab, V domains shown)
# VH: EVQLLESGGGVVQPGRSLRLSCAASGFTFSTYGMHWVRQAPGKGLEWVAVIWFDGSNKEYADSVKGRFTISRDNSKNTLYLQMNSLRAEDTAVYYCAREEVVRGVILWSRKFDYWGQGTLVTVSS
# VL: AELTQSPSSLSASVGDRVTITCRASQNIRRSLNWYQHKPGRAPRLLIYAASTLQSGVPSRFRGSGSGTDFTLTINSLQPADFATYYCQQSSNTPWTFGHGTKVEIKR
# notes: Fab on M13 phage
# B2: SH04 (Fab, V domains shown)
# VH: B1 VH
# VL: B1 VL with H37Q, R41K, R44K, T52S, R62S, N75S, A80E, H99Q
# notes: Fab on M13 phage
# B3: SH08 (Fab, V domains shown)
# VH: EVQLLESGGGVVQPGRSLRLSCAVSGFTLTNYGMHWVRQAPGKGLEWVAHVWYDGSKTEYADSVKGRFAVSRDKSKNTLFLQMNSLTAEDTAIYYCARERREKVYILFYSWLDRWGQGTLVTVSS
# VL: AELTQSPSSLAASVGDRVTITCRANQTIRTSLNWYQQRPGKAPNLLIYGASRLHSGVPSRFSGGISGADFTLTISSLQPEDFATYYCQQTYGYSRTFGQGTKVDIKR
# notes: Fab on M13 phage; also called SH8
# B4: SH10 (Fab, V domains shown)
# VH: VQLLEESGGGVVQPGRSLRLSCAASGFTFSRNGMHWVRQAPGKGLEWVAFIWFDGSNKYYADSVKGRFTISRDNSKNTLYLQMNSLRADDTAVYYCAREEALFRGLTRWSYGMDVWGQGTTVSVSS
# VL: AELQDPVVSVALGQTVRITCQGDGLRSYYASWYQQKPGQAPKLVMYGRNNRPSGIPGRFSGSSSGQTAALTITGTQAEDEADYYCQSRATSGNPVVFGGGTKLTVL
# notes: Fab on M13 phage
# B5: SH12 (Fab, V domains shown)
# VH: B1 VH with I70V
# VL: AELTQSPFSLSASVGDRVTITCRASHNIYRSLNWFQHKPGEAPKLLVYAASSLQRGVPTRFSGSGSGTDFTLTISSLQPEDSATYFCQQSVTFPYTFGQGTKLEIRR
# notes: Fab on M13 phage
# B6: SH16 (Fab, V domains shown)
# VH: EVQLLESGGGVVQPGRSLRLSCAASGFTFSSYGMHWVRQAPGRGLEWVALIWYDGGNKEYADSVKGRFSISRDNSKNTLYLQVNSLRADDTAVYYCARDQRAAAGIFYYSRMDVWGQGTTVTVSS
# VL: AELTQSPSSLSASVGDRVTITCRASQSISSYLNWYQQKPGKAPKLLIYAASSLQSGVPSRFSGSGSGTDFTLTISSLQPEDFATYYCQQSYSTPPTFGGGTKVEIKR
# notes: Fab on M13 phage
# B7: SH18 (Fab, V domains shown)
# VH: EVQLLESGGGVVQPGRSLRLSCAASGFTFRSYAMHWVRQAPGKGLEWVAATAYDGKNKYYADSVKGRFTISRDNSMNTLFLQMNSLRAEDTAVFYCARGGFYYDSSGYYGLRHYFDSWGQGTLVTVSS
# VL: AELTQSPSSLSASVGDRVTITCRASQSISIALNWYQQRPGKAPKLLMYATSTLQSGVPSRFSGSGSGTDFTLTISSLQPEDFATYYCQQYYNKPTFGPGTKVDIKR
# notes: Fab on M13 phage
# B8: SH20 (Fab, V domains shown)
# VH: VQLLEESGGGVVQPGRSLRLSCAASGFTFRSYAMHWVRQAPGKGLEWVAVISYDGSTIYYADSVKGRFTISRANSKNTLFLQMNSLRTEDTAVYYCTRGGFYYDSSGYYGLRHYFDYWGQGTLVTVSS
# VL: AELTQSPFSLSASVGDRVTITCRASQSISRSLNWYQHKPGEAPKLLIYAASSLQRGVPPRFSGSGSGTDFTLTISSLQPEDFATYFCQQSVRIPYSFGQGTKLEIKR
# notes: Fab on M13 phage
# B9: SH21 (Fab, V domains shown)
# VH: B1 VH with I70V
# VL: AELTQSPSFLSASVGDRVTITCRASQGIRSYLAWYQQKPGKAPKLLIYAASTLQSGVPSRFSGSGSGTEFTLTIASLQPDDFATYYCQQLNNYPPFTFGPGTKVDIKR
# notes: Fab on M13 phage
# B10: SH24 (Fab, V domains shown)
# VH: EVQLLESGGGVAQPGRSLRLSCVASGFSLRSYGMHWVRQAPGKGLEWVADIWFDGSNKDYADSVKGRFTISRDNSKNTLYLQMNSLRAEDTAVYYCARDWRVRAFSSGWLSAFDIWGQGTMVTVSS
# VL: AELTQSPSSLSASVGDRVTITCRASQSISTYLNWYQQRPGKAPNLLIYAASTLQRGVPSRFTGSGSGTDFTLTISSLQPEDFATYYCQQSYTTLWTFGQGTKMEIRR
# notes: Fab on M13 phage
# B11: SH25 (Fab, V domains shown)
# VH: VQLLEESGGGVVQPGRSLRLACAASGFSFRSYGMHWVRQAPGRGLEWVAFTWFDGSNKYYVDSVKGRFTISRDNSKNTLYLEMNSLRVDDTAVYYCAREAPMLRGISRYYYAMDVWGPGTTVTVSS
# VL: B1 VL with H37Q, R41K, R44K, T52S, R62S, N75S, A80E, H99Q
# notes: Fab on M13 phage
# B12: SH26 (Fab, V domains shown)
# VH: EVQLLESGGGVVQPGRSLRLSCVVSGFTFNNYGMHWVRQAPGKGLEWVAVIWFDGSNKYYADSVKGRFTISRDNSKNTLYLQMNSLRAEDTAVYYCARENQIKLWSRYLYYFDYWGQGTLVTVSS
# VL: AELTQSPSSLSASVGDRVTITCRASQSISSYLNWYQQKPGKAPKLLIYAASSLQSGVPSRFSGSGSGTDFTLTISSLQPEDFATYYCQQSYSFRRYSFGQGTKLEIKR
# notes: Fab on M13 phage
# B13: SH28 (Fab, V domains shown)
# VH: EVQLLESGGGGVQPGRSLRLSCAASGFTFNSYAMYWVRQPPGKGLEWVAAIWYDGSNKEYADFVKGRFTISRDNSKNTLSLQMNSLRDEDTAVYYCAREANLLRGWSRYYYGMDVWGQGTTVTVSS
# VL: AELTQSPSSLSASVGDRVTITCRADQNIRRSLNWFQQKPGKAPKLLIYAASSLQSGVPSRFSGSGSGTDFTLTISSLQPEDFATYYCQQSSSTPWTFGRGTKVEIKR
# notes: Fab on M13 phage
# B14: SH50 (Fab, V domains shown)
# VH: B13 VH
# VL: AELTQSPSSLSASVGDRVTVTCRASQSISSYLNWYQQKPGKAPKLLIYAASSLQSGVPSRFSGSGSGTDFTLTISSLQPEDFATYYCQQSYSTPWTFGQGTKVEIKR
# notes: Fab on M13 phage
# B15: SH30 (Fab, V domains shown)
# VH: B3 VH
# VL: AELTQSPSSLSASVGDRVTITCRASQSIRRSLNWYQQSPGKTPKLLIYAASSLQSGVPSRFSGSGSGTDFTLTISSLQPEDFATYYCQQSYSTLTFGGGTKVEIKR
# notes: Fab on M13 phage
# B16: SH32 (Fab, V domains shown)
# VH: EVQLLESGGGVVQPGRSLRLSCEASKFTLYNYGMHWVRQAPGKGLEWVAFIWFDGSNKYYEDSVKGRFTVSRDNSKNTLYLQMNSLRAEDTAVYYCARELSKKVALSRYYYYMDVWGQGTTVTVSS
# VL: AELTQEPSLTVSPGGTVTLTCASSTGAVTSRYFPNWFQQKPGQAPRALIYGSNNKHSWTPARFSGSLLGGKAALTLSGVQPEDEAEYYCLLFYAGAWAFGGGTKLTVL
# notes: Fab on M13 phage
# B17: SH34 (Fab, V domains shown)
# VH: EVQLLESGGGVVQPGRSLRLSCAASGFSFSSYGMHWVRQAPGKGLEWVAVISYDGTNKYFADSVKGRFTISRDNSKKTLYLQMTSLRPEDTAVYFCANLRGEVTRRASVPLDIWGQGTMVTVSS
# VL: B12 VL with S52G, F93T, R94P, R95P, S97T
# notes: Fab on M13 phage
# B18: SH36 (Fab, V domains shown)
# VH: B16 VH with L100G
# VL: AELTQSPSSLSASVGDRVTITCRASQSISSYLNWYQQKPGKSPKLLIYAASSLQSGVPSRFSGSGSGTDFTLTISSLQPEDFATYYCQQSYSTPPAFGPGTKVDIKR
# notes: Fab on M13 phage
# B19: SH37 (Fab, V domains shown)
# VH: B16 VH
# VL: AELQDPVVSVALGQTVKITCQGDSLRKYYASWYQQKPGQAPVLVFYARNSRPSGIPDRFSGSNSGTTASLTIAGARAEDEADYYCHSRDSNGHHRVFGGGTKLTVL
# notes: Fab on M13 phage
# B20: SH39 (Fab, V domains shown)
# VH: B1 VH with E1V, V2Q, Q3L, L5E, E6Q, T31S
# VL: AELTQSPSSLSASVGDRVTITCRASQTIGRYLNWYQQRPGKAPKLLVYAVSSLQSGAPSRFSGSGSGTHFTLTITSLQPEDFATYFCQQSYSSPFTFGQGTKVEIKR
# notes: Fab on M13 phage
# Molecular target: T1, human Rh(D) antigen on Rh(D)-positive …
# Assay: agglutination, anti-M13
# Description: The binding of anti-Rh(D) Fab/phage or soluble Fab molecules to normal or partial Rh(D) antigens was assessed by indirect agglutination assays as described (Siegel et al., 1994, Blood 83:2334; Siegel et al., 1997, J. Immunol. Meth. 206: 73). […] Following a one-hour incubation at 37° C., the RBCs were washed 3 times with 2 ml of cold PBS to remove unbound antibody. The resulting RBC pellets were resuspended in 100 μl of a 10 μg/ml solution of sheep anti-M13 antibody (5 Prime-3 Prime, Boulder, Colo.) for Fab/phage experiments or goat anti-human κ or λ light chain antibody (Tago, Burlingame, Calif.) for $\gamma_1\kappa$ or $\gamma_1\lambda$ soluble Fab experiments, respectively. The RBC suspensions were transferred to the round-bottomed wells of a 96-well microplate and left undisturbed for 2 hours. Negative reactions show sharp ~2 millimeter diameter RBC spots whereas the RBCs in agglutinated wells form a thin carpet coating the entire floor of the well (Siegel et al., 1997, J. Immunol. Meth. 206:73). Agglutination titers for recombinant antibodies were determined by performing serial 2-fold dilutions in 1% BSA/PBS.
# Fifty-six randomly chosen colonies were selected, and monoclonal Fab/phage preparations were separately produced from each of these individual colonies, using the methods described herein in Example 1. Rh(D) specificity was determined by indirect agglutination using anti-M13 antibody, as described herein in Examples 1 and 2.
row,Binder,binding result
1,B1,binds
2,B2,binds
3,B3,binds
4,B4,binds
5,B5,binds
6,B6,binds
7,B7,binds
8,B8,binds
9,B9,binds
10,B10,binds
11,B11,binds
12,B12,binds
13,B13,binds
14,B14,binds
15,B15,binds
16,B16,binds
17,B17,binds
18,B18,binds
19,B19,binds
20,B20,binds
